{"source": "patent US20090068110A1", "about": "“ANTIBODIES TO INSULIN-LIKE GROWTH FACTOR RECEPTOR” (Genentech, Inc., priority 2006, published 2009)", "molecules": {"B1": {"name": "9F2: mouse monoclonal anti-IGF-1R antibody from hybridoma 9F2.6.2, ATCC PTA-7018 (antibody, V domains shown)", "VH": "QIQLVQSGPELKKPGETVKISCKASGYTLANYGMNWVKQAPGKGFKWMGWINTNTGKPTYSDEFKGRFVFSLETSASTAYLLINNLSNEDTATYFCARSIYYYGSRYFNVWGAGTT", "VL": "DIQMTQSTSSLSASLGDRVTISCRASQDINNYLTWYQQKPDGTVKLLIYYTSRLHSGVPSRFSGSGSGTDYSLTITNLEQEDFATYFCQQGNTLPWTFGEGTKVEIKR"}, "B2": {"name": "10H5: mouse monoclonal anti-IGF-1R antibody from hybridoma 10H5.3.4, ATCC PTA-7007 (antibody, V domains shown)", "VH": "QVQLQQPGAELVKPGASVTLSCKASGYTFTRFWIHWVKQRPGQGLEWIGEINPSNGRTNYNENFKNKATLTVDTSSSTAYMQLSSLTSEVSVVYYCARGGRLDQWGQGTT", "VL": "DIVMTQSQKFMSTSLGDRVSVTCKASQNVGSNVAWYQQKPGQSPEALIYSASYRYSGVPDRFTGSGSGTDFTLTISNVQSEDLAEYFCHQYNNYPYTFGGGTKVEIKR"}}, "key": {"SJCRH30": {"tested_on": "SJCRH30", "assay": "cell viability assay, SJCRH30", "assay_type": "cell-based, human", "parameters": "key: +: growth inhibition; −: no or weak effect", "conditions": "SJCRH30, Rhabdomyosarcoma", "protocol": "(§1) The different cell lines were cultured in their respective culture media at 37° C. in a humidified atmosphere of 5% CO2. Subsequently, cells were detached from tissue-culture flasks using the cell-dissociation solution, TRIPLE SELECT™ solution (InVitrogen, Carlsbad, Calif., USA), and centrifuged at 1000 rpm for five minutes. Detached cells were washed once with PBS, counted, and seeded in 96-well plates (Corning, N.Y., USA) at 2000 cells per well in 100 μL of culture media. After an overnight incubation at 37° C. in a humidified atmosphere of 5% CO2, the cell-culture medium was replaced with 50 μL of starvation medium consisting of serum-free RPMI 1640™ medium without phenol red. The cells were then starved for five hours in the incubator before addition of 25 μL of each anti-IGF-1R monoclonal antibody at various dilutions in serum-free RPMI 1640™ phenol red-free media. Later, 25 μL of phenol red-free RPMI 1640™ media supplemented with 4% of fetal bovine serum (FBS) (Sigma) with or without 4 ng/ml of human recombinant IGF-I were added on top of the 50 μL of antibody. The cells were then placed at 37° C. with 5% CO2 for 5 to 6 days. At the end of the assay, cell viability was measured using the […]-GLO® kit according to the manufacturer's instructions (Promega, Madison, Wis., USA)."}, "MCF7 cells": {"tested_on": "MCF7 cells", "assay": "cell viability assay ([…]-GLO), MCF7", "assay_type": "cell-based, human", "parameters": "key to Effect of IR3, 6D2, 9F2, and 10H5: +: growth inhibition; −: no or weak effect", "conditions": "MCF7, Breast Adenocarcinoma", "protocol": "as §1\nFor the cell viability assay, MCF7 cells were seeded onto 96-well plates at 2000 cells/well and incubated overnight at 37° C. in a humidified atmosphere of 5% CO2/95% air in RPMI 1640™ medium supplemented with 10% FBS (Sigma, St. Louis, Mo.) and 1% GLUTAMAX™ reagent (Promega, Madison, Wis.). The next day cells were starved in serum-free RPMI 1640™ medium (phenol red-free) for five hours followed by addition of serially diluted human chimeric versions of 9F2, 2B4, and 10H5, as well as h10H5.vX, for one hour. Subsequently, phenol red-free PRMI 1640™ medium supplemented with FBS or IGF-I was added to reach a final concentration of 1% FBS and 1 ng/mL IGF-I. Cells were then incubated with continuous IGF-1R antibody exposure. After five days, the cell viability was then determined using a […]-GLO™ kit (Promega, Madison, Wis.) according to the manufacturer's instructions."}, "DU145": {"tested_on": "DU145", "assay": "cell viability assay, DU145", "assay_type": "cell-based, human", "parameters": "key: +: growth inhibition; −: no or weak effect", "conditions": "DU145, Prostate Adenocarcinoma", "protocol": "as §1"}, "IGF-1R": {"molecular_target": "IGF-1R (Homo sapiens, UniProt P08069)", "assay": "BIACORE surface-plasmon resonance, human IGF-1R", "assay_type": "binding", "parameters": "containing the extracellular domain (ECD, amino acids 1-902) tagged with 10 or 12 histidine residues at the carboxyl terminus; His10 or His12 (C); made in house; host or cells: CHO cells", "conditions": "affinity measurements, FIG. 14", "protocol": "Binding affinities of antibodies to IGF-1R were determined by surface-plasmon resonance measurements on a BIACORE™ 3000 instrument (BIAcore, Inc.). Human IGF-1R-ECD was immobilized at a density of about 500 RU on the flow cells of a PIONEER™ CM5 sensor chip. Immobilization was achieved by random coupling through amino groups using a protocol provided by the manufacturer. Sensorgrams were recorded for binding of anti-IGF-1R Fab or IgG to these surfaces by injection of a series of solutions ranging from 500 nM to 3.1 nM and 250 nM to 0.78 nM in 2-fold increments, respectively. The signal from the reference cell was subtracted from the observed sensorgram. Kinetic constants were calculated by nonlinear regression analysis of the data according to a 1:1 Languir binding model using software supplied by the manufacturer. […]\nBinding affinities of selected antibodies to IGF-1R were determined by surface plasmon resonance measurements on a BIACORE™ 3000 instrument (BIAcore, Inc.). […] Sensorgrams were recorded for binding of anti-IGF-1R Fab or IgG to these surfaces by injection of a series of solutions ranging from 500 nM to 3.1 nM and 250 nM to 0.78 nM in two-fold increments, respectively. […] Kinetic constants were calculated by non-linear regression analysis of the data according to a 1:1 Languir binding model using software supplied by the manufacturer."}}}
{"molecule": "B1", "values": [{"measurement": "Effect of IR3, 6D2, 9F2, and 10H5", "setting": "SJCRH30", "result": "+"}, {"measurement": "Effect of IR3, 6D2, 9F2, and 10H5", "setting": "MCF7 cells", "result": "+"}, {"measurement": "Effect of IR3, 6D2, 9F2, and 10H5", "setting": "DU145", "result": "−"}, {"measurement": "binding to human IGF-1R", "setting": "IGF-1R", "result": "strong binding to human IGF-1R"}]}
{"molecule": "B2", "values": [{"measurement": "Effect of IR3, 6D2, 9F2, and 10H5", "setting": "SJCRH30", "result": "+"}, {"measurement": "Effect of IR3, 6D2, 9F2, and 10H5", "setting": "MCF7 cells", "result": "+"}, {"measurement": "Effect of IR3, 6D2, 9F2, and 10H5", "setting": "DU145", "result": "−"}, {"measurement": "binding to human IGF-1R", "setting": "IGF-1R", "result": "strong binding to human IGF-1R"}]}
